# According to the supplement of paper PMC9732359:
# ± gives the uncertainty stated by the source.
# Experiment: protein stability index of a GFP-peptide fusion (yeast GPS) (PSI 1-4); higher = more stable; sorted into four equal gates, so the index is relative within each strain
# Conditions: doa10∆
# How it was run: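 Mid-log yeast cultures in leucine-free medium, carrying a pooled plasmid library, were sorted into four equal gates by their GFP/Cherry fluorescence ratio. Each plasmid expressed Cherry along with GFP fused upstream of a tiled 17-residue yeast protein peptide. Plasmids recovered from each gate were PCR-amplified and Illumina-sequenced, with reads assigned to strains by barcodes. The protein stability index was obtained by summing each gate's read frequency weighted by its gate number.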
row,Sequence,protein stability index
1,SVLLHHKTMSIVGVLQD [RPT2],1.34 ± 0.074
2,SVLYQLSTSAFMEIVLE [YML031W/NDC1],2.17 ± 0.047

# Same assay, conditions: pdr5∆
row,Sequence,protein stability index
1,SKLSQEFLYPHLNFPNV [SNF12],2.96 ± 0.088
2,SKMLDAASSQVSIVKLD [SNF12],2.89 ± 0.11
3,SKPAFSFGAKSDEKKDG [YJL041W/NSP1],2.97 ± 0.13
4,SKPESSVLQLIVSEDHI [MED1],2.17 ± 0.079
5,SKQDASPKPYAVKYGLN [RPL8A],3.2 ± 0.096
6,SKQDVEALIEFIYDTEK [FAS2],3.17 ± 0.083
7,SKSEFAHRIMLTNILRM [FAS2],1.67 ± 0.068
8,SKYGMLLLRCDDRVDKK [POP3],3.35 ± 0.087
9,SLAATYSMISLQNCCII [ARP9],1.33 ± 0.056
10,SLDMNSMNKELIAIVSK [NUT1],1.44 ± 0.13
11,SLDRVAWRTLVGVSHTN [CYT1],1.31 ± 0.048
12,SLENNIREFPEYFAAQA [RPL10],2.66 ± 0.068
13,SLEQRQEVTKFAKANIG [RPN4],2.98 ± 0.24
14,SLGFLQQSNKLHCCIQL [RPN3],2.47 ± 0.085
15,SLHNTEKIMENKYPELL [AAR2],3.18 ± 0.058
16,SLIENKKAKLVLIANDV [RPL8B],3.23 ± 0.17
17,SLKNDLPQFRSSIQESL [ECM29],2.92 ± 0.07
18,SLLLTNVIITGSTSLIE [ARP7],1.6 ± 0.034
19,SLNEDVEEIKLQKEKEL [SMC2],1.83 ± 0.25
20,SLNFIPITASTSRVFAK [YML103C/NUP188],1.58 ± 0.28
21,SLNNSDSLISGVKQKIT [BRR2],1.87 ± 0.056
22,SLPEELKKRYDLSYNFN [YMR129W/POM152],2.67 ± 0.094
23,SLPHFPKNSKTPQSKGF [RPO31],3.08 ± 0.22
24,SLQEDVSFDFNGVPGQA [MED8],2.97 ± 0.057
25,SLQSCSVAVHFQYVIDE [SMC4],1.3 ± 0.039

row,Sequence,protein stability index
1,SLRSNVVVAETSPEKKD [YAR002W/NUP60],2.63 ± 0.063
2,SLSAYNLTDEGYQWGEE [PRP8],3.12 ± 0.15
3,SLSEFARRRQPTDQNNQ [SNF2],3.12 ± 0.13
4,SLSIEENIPVALCKNRK [POP1],2.98 ± 0.1
5,SLTLSFIRHVAKLNYKN [ECM29],2.87 ± 0.088
6,SLVEVVFYRGMTMQVAV [FAS1],1.88 ± 0.059
7,SMERKVQGAAPWDTSLE [MCD1],3.1 ± 0.089
8,SMGSILLSFVLGVVFGR [YML031W/NDC1],2.13 ± 0.043
9,SMKYDNGVIIAADNLGS [PRE4],3.35 ± 0.088
10,SMMSDGIEHFDIPPPAI [RPO31],1.81 ± 0.13
11,SMQTIAETIILSSAGKN [SRB5],2.39 ± 0.048
12,SMSEEFKYVSVRYEEKR [BRR2],3.38 ± 0.14
13,SMVLFFVCLSCSHIFTS [RPB9],1.4 ± 0.081
14,SNEAAKPSFSFPGKPVD [YOR098C/NUP1],2.96 ± 0.048
15,SNFADSADYEILYEIRA [YDL116W/NUP84],1.61 ± 0.097
16,SNGEVLEVGKNNFCALY [RPN14],2.05 ± 0.11
17,SNGPRAAKKRRPAAKGK [RRP6],3.2 ± 0.11
18,SNGSGIVAAGGGSGAAT [CSL4],3.53 ± 0.18
19,SNGVLNVDNQTSDLVKS [RPS17A],2.88 ± 0.12
20,SNIGNNSINNNNIKNGT [YDL088C/ASM4],2.85 ± 0.057
21,SNIPTLIEKLQGFSKDT [YDL116W/NUP84],3.23 ± 0.088
22,SNLEKLLFINSSKLVDV [YML103C/NUP188],2.07 ± 0.066
23,SNMLGSNEDVMMTGAEQ [RPB3],3.35 ± 0.12
24,SNNQVIKMQRQFSQLND [MED6],3.04 ± 0.059
25,SNNSTTNTFGSNSAGTS [YJL041W/NSP1],3.2 ± 0.14

row,Sequence,protein stability index
1,SNQAVGQTWNFPEVFQV [SRB8],3.36 ± 0.2
2,SNSALFRAVGEGNAQLV [FAS1],2.37 ± 0.11
3,SNSANVSSPESEKNKRQ [ITC1],3.1 ± 0.045
4,SNSNVTNPSSIFGGAGG [YOR098C/NUP1],2.77 ± 0.05
5,SNTDETKGENYQLVKTL [FAS2],3.06 ± 0.081
6,SNTEPIPRSNRHGSVVE [MED1],3.22 ± 0.23
7,SNVYLSLVNSYIIDSPQ [COB],1.81 ± 0.056
8,SPDKIGTFTADYSKPNL [SSN2],3 ± 0.066
9,SPELSLQRHLSLGIRPC [RRP43],2.65 ± 0.053
10,SPMLSISNLTQEQVQDY [FAS1],2.97 ± 0.047
11,SPQLTAIIGLKSGTSHD [SNF12],1.82 ± 0.074
12,SPSPILLTSAGCKNGSF [NUT1],2.06 ± 0.052
13,SPTENGVFDPASYSKYL [RPL22B],3.25 ± 0.083
14,SPVQDWNLLRSLYIFFT [YML103C/NUP188],1.71 ± 0.053
15,SPVTGDNSPSEDFMDIP [SNF2],3.25 ± 0.1
16,SQIIARNEEILRDIGEC [SMC2],2.46 ± 0.091
17,SQPFIKFLNFRPPNGIK [SSN2],2.31 ± 0.05
18,SQSACREMALCRELHNK [SSN3],2.38 ± 0.073
19,SQTQLENANAANNGAAF [MED2],2.75 ± 0.051
20,SQVVETHKVTDIYSHEY [YMR129W/POM152],2.77 ± 0.089
21,SRGINKGHKFNNTKAGR [RPL15A],3 ± 0.2
22,SRILKAQSRNVEIEKRI [YGR119C/NUP57],3.15 ± 0.066
23,SRKQKIAKTFTVDVSSP [RPL22A],3.1 ± 0.077
24,SRPGQSGRCDGYILEGE [RPS8A],3.49 ± 0.17
25,SRPLKKVKILEQIDENW [SWI3],3.11 ± 0.067

row,Sequence,protein stability index
1,SRTDAVRCKDCGHRILL [RPC10],3.31 ± 0.19
2,SRTRAHAQSKREGRHSG [RPL19A],2.85 ± 0.07
3,SSAAILGLGIAFAGSKN [RPN1],1.94 ± 0.097
4,SSDALSKEKANFLETIA [SIR4],1.68 ± 0.046
5,SSHLSDNDFIINDFKKI [POP5],2.73 ± 0.067
6,SSKAATPDTKNFFHAKK [SNF12],2.96 ± 0.051
7,SSNASFNNQGKLDLFKY [MED1],3.03 ± 0.038
8,SSNCHVRQKIKTLKRMI [POP1],1.75 ± 0.053
9,SSNIAGTNPLSSDGAYT [SSN2],2.73 ± 0.17
10,SSRTKFWSFLDSLIFKD [YJL039C/NUP192],2.87 ± 0.17
11,SSSANKLLQLFLTPMDS [YML103C/NUP188],1.61 ± 0.059
12,SSTDEESWFKALAGSEI [FAS1],3.34 ± 0.14
13,SSTGNANTSNNLFGATA [YJL041W/NSP1],3.31 ± 0.049
14,SSVKCFGPIKVELPTKE [FAS1],1.98 ± 0.05
15,SSWQIYSDENDPSISNN [RRP4],3.16 ± 0.11
16,STGPTGAVSLNPSITRL [RRP4],3.05 ± 0.074
17,STKFDYPPMPFDGFLFG [FAS1],2.63 ± 0.051
18,STKLSRPFDSFGKLLQA [ITC1],2.67 ± 0.066
19,STKSNKAKNPLTHSTPK [RPL8B],2.83 ± 0.059
20,STQELQTRAKLLDNEIR [RPT5],3.05 ± 0.085
21,STQPSFAWSKPSTGSNL [YGR119C/NUP57],3.04 ± 0.055
22,STSVGWKYEDVVAKLED [RPL16B],2.28 ± 0.094
23,STTFADCPVVPADPDIL [RPC40],2.87 ± 0.084
